# From patent publication US20120207760A1
# Assays:
# [1] = molecular target: recombinant soluble homotrimeric HA of A/Netherlands/219/03 - H7N7 (Influenza A virus A/Netherlands/219/03 (H7N7)); experiment: micro-array; captured IgG, V5-tagged trimeric HA
# [2] = molecular target: recombinant soluble homotrimeric HA of A/duck/Yangzhou/02/2005 - H8N4 (Influenza A virus A/duck/Yangzhou/02/2005 (H8N4)); experiment: micro-array; captured IgG, V5-tagged trimeric HA
# [3] = molecular target: recombinant soluble homotrimeric HA of A/northern shoveler/California/HKWF115/2007 - H6N1 (Influenza A virus A/northern shoveler/California/HKWF115/2007 (H6N1)); experiment: micro-array; captured IgG, V5-tagged trimeric HA
# [4] = molecular target: recombinant soluble homotrimeric HA of A/Egypt/3300-NAMRU3/08 - H5N1 (Influenza A virus A/Egypt/3300-NAMRU3/2008 (H5N1)); experiment: micro-array; captured IgG, V5-tagged trimeric HA
# [5] = molecular target: recombinant soluble homotrimeric HA of A/chicken/Vietnam/NCVD-016/08 - H5N1 (Influenza A virus A/chicken/Vietnam/NCVD-016/2008 (H5N1)); experiment: micro-array; captured IgG, V5-tagged trimeric HA
# [6] = molecular target: recombinant soluble homotrimeric HA of A/Anhui/1/05 - H5N1 (Influenza A virus A/Anhui/1/2005 (H5N1)); experiment: micro-array; captured IgG, V5-tagged trimeric HA
# [7] = molecular target: recombinant soluble homotrimeric HA of A/Hong Kong/156/97 - H5N1 (Influenza A virus A/Hong Kong/156/97 (H5N1)); experiment: micro-array; captured IgG, V5-tagged trimeric HA
# [8] = molecular target: recombinant homotrimeric HA, A/Hong Kong/1073/99 H9N2 (Influenza A virus A/Hong Kong/1073/99 (H9N2)); experiment: trimeric HA microarray, transfection set 3
# [9] = molecular target: recombinant homotrimeric HA, A/northern shoveler/California/HKWF115/07 (Influenza A virus A/northern shoveler/California/HKWF115/2007 (H6N1)); experiment: trimeric HA microarray, transfection set 3
# [10] = molecular target: recombinant homotrimeric HA, A/common magpie/Hong Kong/5052/07 H5N1 (Influenza A virus A/common magpie/Hong Kong/5052/07 (H5N1)); experiment: trimeric HA microarray, transfection set 3
# [11] = molecular target: recombinant homotrimeric HA, A/Netherlands/219/03 H7N7 (Influenza A virus A/Netherlands/219/03 (H7N7)); experiment: trimeric HA microarray, transfection set 3
# [12] = molecular target: recombinant homotrimeric HA, A/Indonesia/5/05 H5N1 (Influenza A virus A/Indonesia/5/05 (H5N1)); experiment: trimeric HA microarray, transfection set 3
# [13] = molecular target: recombinant homotrimeric HA, A/Japan/305/57 H2N2 (Influenza A virus A/Japan/305/57 (H2N2)); experiment: trimeric HA microarray, transfection set 3
# [14] = molecular target: recombinant homotrimeric HA, A/Vietnam/1203/04 H5N1 (Influenza A virus A/Vietnam/1203/04 (H5N1)); experiment: trimeric HA microarray, transfection set 3
# [15] = molecular target: recombinant homotrimeric HA, A/South Carolina/1/18 H1N1 (Influenza A virus A/South Carolina/1/18 (H1N1)); experiment: trimeric HA microarray, transfection set 3
# [16] = molecular target: recombinant homotrimeric HA, A/swine/Ontario/01911-2/99 H4N6 (Influenza A virus A/swine/Ontario/01911-2/99 (H4N6)); experiment: trimeric HA microarray, transfection set 3
# [17] = molecular target: recombinant homotrimeric HA, A/Wisconsin/67/05 H3N2 (Influenza A virus A/Wisconsin/67/05 (H3N2)); experiment: trimeric HA microarray, transfection set 5
# [18] = molecular target: recombinant homotrimeric HA, A/Indonesia/5/05 H5N1 (Influenza A virus A/Indonesia/5/05 (H5N1)); experiment: trimeric HA microarray, transfection set 5
# [19] = molecular target: recombinant homotrimeric HA, A/California/4/09 H1N1 (Influenza A virus A/California/4/09 (H1N1)); experiment: trimeric HA microarray, transfection set 5
# [20] = molecular target: recombinant homotrimeric HA, A/Japan/305/57 H2N2 (Influenza A virus A/Japan/305/57 (H2N2)); experiment: trimeric HA microarray, transfection set 5
# [21] = molecular target: recombinant homotrimeric HA, A/Vietnam/1203/04 H5N1 (Influenza A virus A/Vietnam/1203/04 (H5N1)); experiment: trimeric HA microarray, transfection set 5
# [22] = molecular target: recombinant homotrimeric HA, A/South Carolina/1/18 H1N1 (Influenza A virus A/South Carolina/1/18 (H1N1)); experiment: trimeric HA microarray, transfection set 5
# [23] = molecular target: recombinant homotrimeric HA, A/Solomon Islands/3/06 H1N1 (Influenza A virus A/Solomon Islands/3/06 (H1N1)); experiment: trimeric HA microarray, transfection set 5
# [24] = molecular target: recombinant homotrimeric HA, A/swine/Ontario/01911-2/99 H4N6 (Influenza A virus A/swine/Ontario/01911-2/99 (H4N6)); experiment: trimeric HA microarray, transfection set 5
# [25] = molecular target: recombinant homotrimeric HA, A/Wisconsin/67/05 H3N2 (Influenza A virus A/Wisconsin/67/05 (H3N2)); experiment: trimeric HA microarray, transfection set 4
# [26] = molecular target: recombinant homotrimeric HA, A/Indonesia/5/05 H5N1 (Influenza A virus A/Indonesia/5/05 (H5N1)); experiment: trimeric HA microarray, transfection set 4
# [27] = molecular target: recombinant homotrimeric HA, A/California/4/09 H1N1 (Influenza A virus A/California/4/09 (H1N1)); experiment: trimeric HA microarray, transfection set 4
# [28] = molecular target: recombinant homotrimeric HA, A/Japan/305/57 H2N2 (Influenza A virus A/Japan/305/57 (H2N2)); experiment: trimeric HA microarray, transfection set 4
# [29] = molecular target: recombinant homotrimeric HA, A/Vietnam/1203/04 H5N1 (Influenza A virus A/Vietnam/1203/04 (H5N1)); experiment: trimeric HA microarray, transfection set 4
# [30] = molecular target: recombinant homotrimeric HA, A/South Carolina/1/18 H1N1 (Influenza A virus A/South Carolina/1/18 (H1N1)); experiment: trimeric HA microarray, transfection set 4
# [31] = molecular target: recombinant homotrimeric HA, A/Solomon Islands/3/06 H1N1 (Influenza A virus A/Solomon Islands/3/06 (H1N1)); experiment: trimeric HA microarray, transfection set 4
# [32] = molecular target: recombinant homotrimeric HA, A/swine/Ontario/01911-2/99 H4N6 (Influenza A virus A/swine/Ontario/01911-2/99 (H4N6)); experiment: trimeric HA microarray, transfection set 4
substance,measurement,setting,value
TCN-202 (2N9) (antibody),Trimeric HA Binding: RLU,[1],18000 RLU
same,Trimeric HA Binding: RLU,[2],13800 RLU
same,Trimeric HA Binding: RLU,[3],3040 RLU
same,Trimeric HA Binding: RLU,[4],13900 RLU
same,Trimeric HA Binding: RLU,[5],2570 RLU
same,Trimeric HA Binding: RLU,[6],10000 RLU
same,Trimeric HA Binding: RLU,[7],945 RLU
same,Trimeric HA Binding RLU,[8],57 RLU
same,Trimeric HA Binding RLU,[9],73 RLU
same,Trimeric HA Binding RLU,[10],16 RLU
same,Trimeric HA Binding RLU,[11],247 RLU
same,Trimeric HA Binding RLU,[12],43 RLU
same,Trimeric HA Binding RLU,[13],42 RLU
same,Trimeric HA Binding RLU,[14],967 RLU
same,Trimeric HA Binding RLU,[15],731 RLU
same,Trimeric HA Binding RLU,[16],54 RLU
same,Trimeric HA Binding RLU,[17],581 RLU
same,Trimeric HA Binding RLU,[18],1970 RLU
same,Trimeric HA Binding RLU,[19],733 RLU
same,Trimeric HA Binding RLU,[20],1880 RLU
same,Trimeric HA Binding RLU,[21],30000 RLU
same,Trimeric HA Binding RLU,[22],5330 RLU
same,Trimeric HA Binding RLU,[23],525 RLU
same,Trimeric HA Binding RLU,[24],2690 RLU
same,Trimeric HA Binding RLU,[25],125 RLU
same,Trimeric HA Binding RLU,[26],19 RLU
same,Trimeric HA Binding RLU,[27],94 RLU
same,Trimeric HA Binding RLU,[28],334 RLU
same,Trimeric HA Binding RLU,[29],67 RLU
same,Trimeric HA Binding RLU,[30],27 RLU
same,Trimeric HA Binding RLU,[31],34 RLU
same,Trimeric HA Binding RLU,[32],157 RLU
